{"source": "patent US20250115663A1", "about": "(CELLDEX THERAPEUTICS, published 2025)", "binders": {"B1": {"name": "anti-CD40 human monoclonal antibody 3C3 (antibody, human IgG2, kappa, V domains shown)", "VH": "QVQLVESGGGVVQPGRSLRLSCAGSGFIFSRYGMYWVRQAPGKGLEWVAVIWYDGSYKYYADSVKGRFTISRDNSKNTLYLQMNSLRAEDTAVYYCARESPWYYFDYWGQGTLVTVSS", "VL": "DIQMTQSPSSLSASVGDRVTITCRASQGISNYLAWYQQKPGKVPKLLIYAASTLQSGVPSRFSGSGSGTDFTLTISSLQPEDVATYYCQKYKSAPFTFGPGTKVDIKR", "notes": "Human IgG2, C-terminal lysine removed; also called anti-CD40 mAb 3C3; CD40 antibody 3C3"}}, "key": {"[1]": {"target": "T1, kappa-sCD40(1-94)-Flag mutant fragment C (multiple mutations of residues 25, 26, 28 and 30)", "T1 construct": "also called C (25, 26, 28, 30)", "assay": "ELISA, kappa-sCD40-Flag fusion captured on anti-Flag, anti-human IgG Fc-HRP"}, "[2]": {"target": "T2, kappa-sCD40(1-94)-Flag mutant fragment B (multiple mutations of residues 13-15)", "T2 construct": "also called B (13-15)", "assay": "ELISA, kappa-sCD40-Flag fusion captured on anti-Flag, anti-human IgG Fc-HRP"}, "[3]": {"target": "T3, kappa-sCD40(1-94)-Flag point mutant P2Q (human, UniProt P25942 21-114)", "T3 construct": "not shown: N-terminal human kappa light chain; C-terminal Flag tag", "T3 chain": "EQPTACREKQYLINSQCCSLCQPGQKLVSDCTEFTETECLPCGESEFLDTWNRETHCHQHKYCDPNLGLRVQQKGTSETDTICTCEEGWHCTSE", "assay": "ELISA, kappa-sCD40-Flag fusion captured on anti-Flag, anti-human IgG Fc-HRP"}, "[4]": {"target": "T4, kappa-sCD40-Flag fusion protein, full length ECD amino acid residues 1-173 (human, UniProt P25942 21-193)", "T4 construct": "also called full length sCD40; not shown: N-terminal human kappa light chain; C-terminal Flag tag", "T4 sequence (P25942 21-193)": "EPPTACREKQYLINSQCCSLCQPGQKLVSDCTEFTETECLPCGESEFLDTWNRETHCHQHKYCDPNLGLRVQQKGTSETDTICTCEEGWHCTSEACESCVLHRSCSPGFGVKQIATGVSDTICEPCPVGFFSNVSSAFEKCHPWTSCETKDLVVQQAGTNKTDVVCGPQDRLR", "assay": "ELISA, kappa-sCD40-Flag fusion (~1 ug/ml) captured on anti-Flag, anti-human IgG Fc-HRP", "description": "(§1) 1 μg/ml of purified kappa-sCD40-Flag fusion proteins or CHO cell supernatants containing the sCD40 fusion proteins were captured to microtiter plates that were pre-coated with 5 μg/ml mouse anti-Flag antibody (Sigma) in PBS and blocked with 5% bovine serum albumin in PBS. Following incubation with the CD40 antibody, the microplates were washed with PBS/Tween, and incubated with a goat anti-human IgG Fc polyclonal reagent conjugated to horseradish peroxidase. After washing, the plates were developed with HRP substrate, and analyzed at OD 450-650 using a microtiter plate reader. An ELISA with a goat anti-human IgG Fab2-HRP to measure kappa chain binding was carried out in parallel to validate the sCD40 fusion protein expression from different transfections."}, "[5]": {"target": "T5, kappa-sCD40-Flag fusion protein, fragment amino acids 36-130 (human, UniProt P25942 56-150)", "T5 construct": "not shown: N-terminal human kappa light chain; C-terminal Flag tag", "T5 sequence (P25942 56-150)": "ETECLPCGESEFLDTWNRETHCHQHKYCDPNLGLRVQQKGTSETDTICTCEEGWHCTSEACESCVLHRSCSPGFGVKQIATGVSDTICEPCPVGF", "assay": "ELISA, kappa-sCD40-Flag fusion (~1 ug/ml) captured on anti-Flag, anti-human IgG Fc-HRP", "description": "as §1"}, "[6]": {"target": "T6, kappa-sCD40-Flag fusion protein, fragment amino acids 1-94 (human, UniProt P25942 21-114)", "T6 construct": "also called sCD40aa 1-94; not shown: N-terminal human kappa light chain; C-terminal Flag tag", "assay": "ELISA, kappa-sCD40-Flag fusion (~1 ug/ml) captured on anti-Flag, anti-human IgG Fc-HRP", "description": "as §1"}, "[7]": {"target": "T7, kappa-sCD40(1-94)-Flag point mutant P3S (human, UniProt P25942 21-114)", "T7 construct": "not shown: N-terminal human kappa light chain; C-terminal Flag tag", "T7 chain": "T3 chain with Q2P, P3S", "assay": "ELISA, kappa-sCD40-Flag fusion (~2 ug/ml) captured on anti-Flag, anti-human IgG Fc-HRP", "description": "as §1, with “containing” for “1 μg/ml of purified kappa-sCD40-Flag fusion proteins or CHO cell supernatants containing”"}, "[8]": {"target": "T8, kappa-sCD40(1-94)-Flag point mutant E33A (human, UniProt P25942 21-114)", "T8 construct": "not shown: N-terminal human kappa light chain; C-terminal Flag tag", "T8 chain": "T3 chain with Q2P, E33A", "assay": "ELISA, kappa-sCD40-Flag fusion (~2 ug/ml) captured on anti-Flag, anti-human IgG Fc-HRP", "description": "as §1, with “containing” for “1 μg/ml of purified kappa-sCD40-Flag fusion proteins or CHO cell supernatants containing”"}, "[9]": {"target": "T6, kappa-sCD40-Flag fusion protein, …", "assay": "ELISA, kappa-sCD40-Flag fusion (~2 ug/ml) captured on anti-Flag, anti-human IgG Fc-HRP", "description": "as §1, with “containing” for “1 μg/ml of purified kappa-sCD40-Flag fusion proteins or CHO cell supernatants containing”"}, "[10]": {"target": "T6, kappa-sCD40-Flag fusion protein, …", "assay": "ELISA, kappa-sCD40(1-94)-Flag captured on anti-Flag antibody, detection anti-human IgG Fc-HRP; the concentration axis is taken as that of 3C3 (not said on the sheet)", "description": "as §1"}, "[11]": {"target": "T9, soluble human CD40-MsIgG2a (human, UniProt P25942)", "T9 construct": "soluble, fused to mouse IgG2a; also called recombinant human CD40-msG2a chimeric protein; CD40-MsIgG2a (Celldex, 60 kD by SDS-PAGE)", "T9 sequence (P25942 21-193 limits assumed)": "as the sequence (P25942 21-193) above", "assay": "BLI (Octet QKe), antibody captured on anti-human Fc (AHC) biosensors, analyte soluble human CD40-MsIgG2a 3.13 to 0.098 nM, 25 C, 1:1 fit; column head kdis(1/s)", "description": "Purified antibodies from Example 1 were captured on Anti-Human Fc Capture (AHC) biosensors (Fortebio Product No. 18-5060). Each antibody was prepared in dilution buffer (10mMPO4+150 mM NaCl+1 mg/mL BSA+0.5% Tween 20, pH 7.2) to 0.5 μg/mL and loaded on freshly hydrated AHC biosensors for 35-50 sec at 25° C. and 1000 rpm plate shake speed to achieve a target response of 0.2 nm. Low levels of ligand were captured to limit any effects of mass transport of analyte on kinetic parameters. For one assay, eight biosensors were loaded with the same antibody.\nBinding was determined by exposing six of the antibody loaded biosensors to analyte: soluble human CD40-MsIgG2a (Celldex, 60 kD by SDS-PAGE). Affinity measurements were determined using 2-fold serial dilutions of analyte ranging from 3.13 to 0.098 nM in dilution buffer at 25° C. and 1000 rpm plate shake speed. Association of the antibody loaded biosensors in analyte wells was carried out for 1200 seconds, the biosensors were then moved to dilution buffer wells for 2.5 hrs (9000 sec) for dissociation measurements.\nFortebio's Data Analysis Software version 8.2.0.7 (Pall ForteBio, Menlo Park, CA) was used in each case to derive kinetic parameters from the concentration series of analyte in dilution buffer binding to captured antibody. The association and dissociation curves were fitted to a 1:1 binding model using the data analysis software according to the manufacturer's guidelines."}}, "note": "Numbering of substitutions follows the chain as printed.", "data": [{"binder": "B1", "values": [{"measurement": "OD", "setting": "[1]", "result": 2.02, "unit": "OD 450-650"}, {"measurement": "OD", "setting": "[2]", "result": 2.38, "unit": "OD 450-650"}, {"measurement": "OD", "setting": "[3]", "result": 2.2, "unit": "OD 450-650"}, {"measurement": "Average OD", "setting": "[4]", "result": 1.26, "unit": "OD 450-650"}, {"measurement": "Average OD", "setting": "[5]", "result": 0.024, "unit": "OD 450-650"}, {"measurement": "Average OD", "setting": "[6]", "result": 1.8, "unit": "OD 450-650"}, {"measurement": "Average OD", "setting": "[7]", "result": 2.01, "unit": "OD 450-650"}, {"measurement": "Average OD", "setting": "[8]", "result": 1.62, "unit": "OD 450-650"}, {"measurement": "Average OD", "setting": "[9]", "result": 2.16, "unit": "OD 450-650"}, {"measurement": "EC50 (read off the curve)", "setting": "[10]", "result": "~0.02", "unit": "µg/mL"}, {"measurement": "koff", "setting": "[11]", "result": "8.67e-06", "unit": "s⁻¹"}]}]}
